Tests used:
Mcm4 = Mcm4 (UniProt P30665); assay: CoSMoS: labelled Mcm2-7 arrival at ORC-Cdc6-bound DNA; conditions: reference: wild-type ORC, no CDK
[1] = molecular target: origin recognition complex (ORC), wild type, unphosphorylated (S. cerevisiae) (UniProt P54784); assay: colocalization single-molecule spectroscopy (CoSMoS); surface-tethered ARS1 DNA^AF488; 2.5 nM ORC, 10 nM Cdc6, 2.5 nM labeled Mcm2-7-Cdt1, ATP; time to the first Mcm2-7 association with each DNA, taken by the paper as OCCM formation; apparent first-order association rate, background binding at non-DNA sites fitted; conditions: remark: other sources report otherwise
[2] = molecular target: phosphorylated origin recognition complex (ORC treated with Clb5-Cdk1 and ATP) (S. cerevisiae) (UniProt P54784); assay: as above; conditions: remark: other sources report otherwise
[3] = molecular target: ORC^6C-DY549, wild type, without CDK treatment (S. cerevisiae) (UniProt P54784); assay: FRET or BRET; single-molecule FRET on surface-tethered ARS1 DNA between ORC^6C-DY549 (donor on Orc6 C-terminus) and Mcm2-7^3N-DY650 (acceptor on Mcm3 N terminus), with Cdc6 and Cdt1; MO complex (ORC on the N-terminal face of Mcm2-7) scored if E_FRET > 0.5 for two consecutive frames; low E_FRET in the OCCM

## Orc6 (from UniProt P38826) wild-type ORC treated with Clb5-Cdk1 and ATP
Mcm4
  other: apparent association rate ka: weaker; reference 0.0047 ± 0.0003

## Cdt1-Mcm2-7^4SNAP-JF646 (Mcm2-7-Cdt1 complex, Mcm2-7 fluorescently labeled at the N-terminus of Mcm4), P29469 1-868; P24279 1-971; P30665 1-933; P29496 1-775; P53091 1-1017; P38132 1-845; P47112 1-604
[1]
  apparent first-order association rate ka of first Mcm2-7-Cdt1 recruitment (OCCM formation): 0.0047 s⁻¹
[2]
  apparent first-order association rate ka of first Mcm2-7-Cdt1 recruitment (OCCM formation): 0.002 s⁻¹

## Mcm2-7^3N-DY650 (Mcm2-7 complex with an acceptor fluorophore at the N terminus of Mcm3) (from UniProt P29469 1-868; P24279 1-971; P30665 1-933; P29496 1-775; P53091 1-1017; P38132 1-845)
[3]
  percent of first Mcm2-7 landings with the high-E FRET state (MO complex formation): 21%
